From patent US20260184804A1 (KEY2BRAIN, published 2026)

Tests used:
[1] = molecular target: T1, His-tagged ectodomain of human transferrin receptor 1 (hTfR1), amino acids R121-F760 (human, UniProt P02786 121-760); test: SPR (Biacore T200); hTfR1 amine-coupled (~2300 RU), single concentration
T1 construct: Made in CHO cells, purified by IMAC; also called human TfR1; ectodomain of hTfR1
Protocol: (§1) Briefly, hTfR1 was covalently immobilized to the surface of a CM5 chip (Cytiva) by amine coupling using standard reagents. […] Subsequently, all six VHHs were diluted in running buffer (PBS supplemented with 0.05% Tween® 20 (PBS-T)) to 100 nM. A signal equal or higher than the corresponding WT was regarded as “binding similar to WT” (see Table 11).

[2] = molecular target: T1, His-tagged ectodomain of human …; test: SPR (Biacore T200); hTfR1 amine-coupled (~1000 RU), single concentration; - = no apparent binding
Protocol: (§2) Briefly, hTfR1 was covalently immobilized to the surface of a CM5 chip (Cytiva) by amine coupling using standard reagents. Human TfR1 was diluted to 15 μg/mL in 10 mM sodium acetate pH 5.5 and immobilizing level was aimed to 1000 response units (RUs). Subsequently, all VHHs were diluted in running buffer (PBS supplemented with 0.05% Tween® 20) to 50 nM. […] Similarly, KB_A15 was also only tested fused to a His6 tag.
(§3) KB_A20-KB_A31 were only produced in CHO cells and purified by PrismA™ resin.

[3] = molecular target: T1, His-tagged ectodomain of human …; test: SPR (Biacore 8K, single-cycle); hTfR1 amine-coupled on CM5, fusion as analyte 0.25-64 nM
[4] = molecular target: T1, His-tagged ectodomain of human …; test: SPR (Biacore T200); hTfR1 amine-coupled (~2300 RU), VHH at 100 nM; column: binding to hTfR1 similar to corresponding WT VHH
Protocol: as §1

[5] = molecular target: T1, His-tagged ectodomain of human …; test: SPR (Biacore T200); hTfR1 amine-coupled (~1000 RU), VHH at 50 nM; X = binding similar to control
Protocol: as §2, §3

[6] = molecular target: T1, His-tagged ectodomain of human …; test: SPR (Biacore T200); hTfR1 amine-coupled (~1000 RU), VHH at 50 nM; (-) = binding affinity severely decreased
Protocol: as §2, §3

[7] = molecular target: T2, His-tagged ectodomain of mouse transferrin receptor 1 (mTfR1), amino acids S122-F763 (mouse, UniProt Q62351 122-763); test: phage ELISA on coated mTfR1 (1 µg/ml)
T2 construct: Made in CHO cells; also called mouse TfR1
Protocol: Selected phage samples were diluted 1:10 in block buffer casein ELISA blocker (ThermoFischer Scientific), 20% v/v PEG8000 in 2.5 M NaCl before the ELISA. The targets (hTfR1, cTfR1, mTfR1) were coated at 1 μg/ml in PBS pH 7.4 overnight at 4° C. in 96-well Greiner plates (non-treated), 100 μl. The coating buffer was discarded and replaced by 100 μl block solution. The plate was covered and incubated at RT for 2 h, 900 rpm. Anti-human TfR1 antibody BA3 (MEM189, Sigma, 1 mg/ml) and anti-mTfR1 (81D3, Novus biologicals, 1 mg/ml) were diluted in block buffer to 100 nM starting concentration and diluted 1:2 in series by transferring 100 μl to 100 μl block buffer. Plates were incubated for 1 h at RT, 900 rpm, Wells were washed 3×300 μl in PBST (PBS with 0.1% Tween® 20) using the 50TS microplate washer (Biotek). Anti-M13 antibody (Anti-PVIII GE Healthcare) diluted 1:4000 in block buffer, 100 μl was added to target-coated wells followed by incubation for 1 h at RT, 900 rpm. Washing with PBST was performed. The secondary anti-mouse antibody (Sigma) 1:4000 in block buffer, incubated 1 h at RT, 900 rpm. Washes in PBST was followed by development with TMB substrate. The reaction was stopped with addition of 2 M H₂SO₄ to each well, readings for absorbance at 450 nm was measured using a SpectraMax 3000 (Molecular Devices). […]

[8] = molecular target: T1, His-tagged ectodomain of human …; test: SPR (Biacore T200); hTfR1 amine-coupled (~1000 RU), VHH at 50 nM; (X) = binding affinity decreased
Protocol: as §2, §3

T1 sequence (P02786 other isoform, or with tags, fused parts or gaps limits assumed): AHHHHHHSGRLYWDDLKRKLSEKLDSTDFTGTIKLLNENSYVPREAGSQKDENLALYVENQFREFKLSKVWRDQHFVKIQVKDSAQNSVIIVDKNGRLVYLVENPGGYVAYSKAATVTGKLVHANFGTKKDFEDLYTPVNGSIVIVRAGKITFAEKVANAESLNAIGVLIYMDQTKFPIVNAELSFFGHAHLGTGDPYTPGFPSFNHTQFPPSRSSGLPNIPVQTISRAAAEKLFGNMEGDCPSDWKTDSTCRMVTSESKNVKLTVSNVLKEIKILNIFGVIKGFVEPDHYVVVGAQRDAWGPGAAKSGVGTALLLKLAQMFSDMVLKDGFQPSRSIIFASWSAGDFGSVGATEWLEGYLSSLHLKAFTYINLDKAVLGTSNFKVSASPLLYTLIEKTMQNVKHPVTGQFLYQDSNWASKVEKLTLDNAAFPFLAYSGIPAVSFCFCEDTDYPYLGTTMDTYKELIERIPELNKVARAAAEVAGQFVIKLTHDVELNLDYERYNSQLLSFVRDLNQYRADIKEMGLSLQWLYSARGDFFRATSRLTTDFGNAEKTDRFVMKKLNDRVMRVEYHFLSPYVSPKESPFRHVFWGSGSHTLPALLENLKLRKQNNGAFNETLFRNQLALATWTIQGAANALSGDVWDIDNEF
T2 sequence (Q62351 other isoform, or with tags, fused parts or gaps limits assumed): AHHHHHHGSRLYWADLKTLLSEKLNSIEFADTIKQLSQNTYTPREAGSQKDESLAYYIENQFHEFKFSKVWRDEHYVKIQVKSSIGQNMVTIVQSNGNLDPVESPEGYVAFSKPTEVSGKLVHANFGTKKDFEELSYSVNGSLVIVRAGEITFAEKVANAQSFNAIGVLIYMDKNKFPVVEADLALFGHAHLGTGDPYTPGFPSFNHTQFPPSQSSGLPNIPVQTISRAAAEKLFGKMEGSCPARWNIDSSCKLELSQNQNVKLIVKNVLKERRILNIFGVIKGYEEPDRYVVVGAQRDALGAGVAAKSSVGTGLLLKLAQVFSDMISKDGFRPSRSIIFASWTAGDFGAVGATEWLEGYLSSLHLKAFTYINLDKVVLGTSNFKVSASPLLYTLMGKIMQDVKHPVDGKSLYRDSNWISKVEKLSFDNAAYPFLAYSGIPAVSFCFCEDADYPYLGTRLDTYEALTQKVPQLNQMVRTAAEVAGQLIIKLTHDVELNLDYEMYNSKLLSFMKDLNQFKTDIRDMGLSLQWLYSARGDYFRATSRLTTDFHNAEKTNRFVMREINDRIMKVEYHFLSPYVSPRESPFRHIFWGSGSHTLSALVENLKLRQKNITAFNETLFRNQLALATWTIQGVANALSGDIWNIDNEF

B1: ProA positive control 1 with GGHHHHHH tag (VHH)
VHH: QVQLQESGGGLVQPGGSLRLSCAASGFTFSSYAMSWVRQAPGKGLEWVSAISGSGGSTYYADSVKGRFTISRDNSKNTLYLQMNSLRAEDTAVYYCGTDMEVWGKGTTVTVSSGGHHHHHH
- binding result [1]: no binding (tested: 100 nM)

B2: KB_A19 (humanized variant of KB_A01) (VHH)
VHH: EVQLVESGGGLVQPGGSLRLSCAASGSIFGSKRMGWVRQAPGKGLEWVSAITYRGTTYYADSVKGRFTISRDNSKNTLYLQMNSLRAEDTAVYYCARFTTDNYWGQGTLVTVSS
notes: Free VHH from CHO cells without tag; also run as His6-tagged E. coli form
- binding result [2]: no binding (tested: 50 nM)

B3: scFv-KB_A01 (scFv of 3D6 at the N-terminus of KB_A01) (bispecific antibody)
chain: EVKLVESGGGLVKPGASLKLSCAASGFTFSNYGMSWVRQNSDKRLEWVASIRSGGGRTYYSDNVKGRFTISRENAKNTLYLQMSSLKSEDTALYYCVRYDHYSGSSDYWGQGTTVTVSGGGGSGGGGSGGGGSYVVMTQTPLTLSVTIGQPASISCKSSQSLLDSDGKTYLNWLLQRPGQSPKRLIYLVSKLDSGVPDRFTGSGSGTDFTLKISRIEAEDLGLYYCWQGTHFPRTFGGGTKLEIKGGGGSGGGGSGGGGSQVQLQESGGGSVQAGGSLSLSCAASGSIFGSKRMGWFRQAPGEQRDVVATITYRGTTEYADSVKGRFTISRDNAKNTVYLQMNNLKPEDTAVYYCWMFTTDNYWGQGTQVTVSSGSENLYFQSHHHHHH
notes: Monovalent for TfR1; also called scFv-VHH
- Kd [3]: 3.16 nM
- koff [3]: 0.00539 s⁻¹
- kon [3]: 1.7e+06 M⁻¹ s⁻¹

B4: KB_A01-scFv (scFv of 3D6 at the C-terminus of KB_A01) (bispecific antibody)
chain: QVQLQESGGGSVQAGGSLSLSCAASGSIFGSKRMGWFRQAPGEQRDVVATITYRGTTEYADSVKGRFTISRDNAKNTVYLQMNNLKPEDTAVYYCWMFTTDNYWGQGTQVTVSSGGGGSGGGGSGGGGSEVKLVESGGGLVKPGASLKLSCAASGFTFSNYGMSWVRQNSDKRLEWVASIRSGGGRTYYSDNVKGRFTISRENAKNTLYLQMSSLKSEDTALYYCVRYDHYSGSSDYWGQGTTVTVSGGGGSGGGGSGGGGSYVVMTQTPLTLSVTIGQPASISCKSSQSLLDSDGKTYLNWLLQRPGQSPKRLIYLVSKLDSGVPDRFTGSGSGTDFTLKISRIEAEDLGLYYCWQGTHFPRTFGGGTKLEIKGSENLYFQSHHHHHH
notes: Monovalent for TfR1; also called VHH-scFv
- Kd [3]: 3.44 nM
- koff [3]: 0.0075 s⁻¹
- kon [3]: 2.18e+06 M⁻¹ s⁻¹

B5: KB_A12 (KB_A01: S19R, N84S) with GGHHHHHH tag (VHH)
VHH: QVQLQESGGGSVQAGGSLRLSCAASGSIFGSKRMGWFRQAPGEQRDVVATITYRGTTEYADSVKGRFTISRDNAKNTVYLQMNSLKPEDTAVYYCWMFTTDNYWGQGTQVTVSSGGHHHHHH
- binding result [4]: binds

B6: KB_A15 (KB_A01: S19R, V78I, N84S), His6-tagged (VHH)
VHH: QVQLQESGGGSVQAGGSLRLSCAASGSIFGSKRMGWFRQAPGEQRDVVATITYRGTTEYADSVKGRFTISRDNAKNTIYLQMNSLKPEDTAVYYCWMFTTDNYWGQGTQVTVSS
notes: also called KB3_A15
- binding result [5]: binds

B7: KB_A18 (humanized variant of KB_A01) (VHH)
VHH: EVQLVESGGGLVQPGGSLRLSCAASGSIFGSKRMGWFRQAPGKQRDVVATITYRGTTEYADSVKGRFTISRDNAKNTIYLQMNSLRPEDTAVYYCWMFTTDNYWGQGTLVTVSS
notes: Free VHH from CHO cells without tag; also run as His6-tagged E. coli form; also called KB3_A18
- binding result [5]: binds

B8: KB_A24 (KB_A18 plus V47W) (VHH)
VHH: EVQLVESGGGLVQPGGSLRLSCAASGSIFGSKRMGWFRQAPGKQRDWVATITYRGTTEYADSVKGRFTISRDNAKNTIYLQMNSLRPEDTAVYYCWMFTTDNYWGQGTLVTVSS
notes: Free VHH from CHO cells, no tag
- binding result [6]: binds

B9: KB_A22 (KB_A18 plus R45L) (VHH)
VHH: EVQLVESGGGLVQPGGSLRLSCAASGSIFGSKRMGWFRQAPGKQLDVVATITYRGTTEYADSVKGRFTISRDNAKNTIYLQMNSLRPEDTAVYYCWMFTTDNYWGQGTLVTVSS
notes: as for B8
- binding result [5]: binds

B10: KB_A25 (KB_A18 plus A49S) (VHH)
VHH: EVQLVESGGGLVQPGGSLRLSCAASGSIFGSKRMGWFRQAPGKQRDVVSTITYRGTTEYADSVKGRFTISRDNAKNTIYLQMNSLRPEDTAVYYCWMFTTDNYWGQGTLVTVSS
notes: as for B8
- binding result [2]: no binding (tested: 50 nM)

B11: KB_A28 (KB_A18 plus A74S) (VHH)
VHH: EVQLVESGGGLVQPGGSLRLSCAASGSIFGSKRMGWFRQAPGKQRDVVATITYRGTTEYADSVKGRFTISRDNSKNTIYLQMNSLRPEDTAVYYCWMFTTDNYWGQGTLVTVSS
notes: as for B8
- binding result [5]: binds

B12: KB_A23 (KB_A18 plus D46E) (VHH)
VHH: EVQLVESGGGLVQPGGSLRLSCAASGSIFGSKRMGWFRQAPGKQREVVATITYRGTTEYADSVKGRFTISRDNAKNTIYLQMNSLRPEDTAVYYCWMFTTDNYWGQGTLVTVSS
notes: as for B8
- binding result [5]: binds

B13: KB_A21 (KB_A18 plus Q44G) (VHH)
VHH: EVQLVESGGGLVQPGGSLRLSCAASGSIFGSKRMGWFRQAPGKGRDVVATITYRGTTEYADSVKGRFTISRDNAKNTIYLQMNSLRPEDTAVYYCWMFTTDNYWGQGTLVTVSS
notes: as for B8
- binding result [5]: binds

B14: KB_A20 (KB_A18 plus F37V) (VHH)
VHH: EVQLVESGGGLVQPGGSLRLSCAASGSIFGSKRMGWVRQAPGKQRDVVATITYRGTTEYADSVKGRFTISRDNAKNTIYLQMNSLRPEDTAVYYCWMFTTDNYWGQGTLVTVSS
notes: Free VHH from CHO cells, no tag, purified on PrismA resin
- binding result [2]: no binding (tested: 50 nM)

B15: KB_A01 clone displayed on phage (VHH)
VHH: QVQLQESGGGSVQAGGSLSLSCAASGSIFGSKRMGWFRQAPGEQRDVVATITYRGTTEYADSVKGRFTISRDNAKNTVYLQMNNLKPEDTAVYYCWMFTTDNYWGQGTQVTVSS
- binding result [7]: no binding

B16: KB_A26 (KB_A18 plus T50A) (VHH)
VHH: EVQLVESGGGLVQPGGSLRLSCAASGSIFGSKRMGWFRQAPGKQRDVVAAITYRGTTEYADSVKGRFTISRDNAKNTIYLQMNSLRPEDTAVYYCWMFTTDNYWGQGTLVTVSS
notes: as for B8
- binding result [2]: no binding (tested: 50 nM)

B17: KB_A30 (KB_A18 plus W96A) (VHH)
VHH: EVQLVESGGGLVQPGGSLRLSCAASGSIFGSKRMGWFRQAPGKQRDVVATITYRGTTEYADSVKGRFTISRDNAKNTIYLQMNSLRPEDTAVYYCAMFTTDNYWGQGTLVTVSS
notes: as for B8
- binding result [2]: no binding (tested: 50 nM)

B18: KB_A16 (humanized variant of KB_A01) (VHH)
VHH: EVQLVESGGGSVQPGGSLRLSCAASGSIFGSKRMGWFRQAPGKQRDVVATITYRGTTEYADSVKGRFTISRDNAKNTVYLQMNSLRPEDTAVYYCWMFTTDNYWGQGTQVTVSS
notes: Free VHH from CHO cells without tag
- binding result [5]: binds

B19: KB_A31 (KB_A18 plus M97R) (VHH)
VHH: EVQLVESGGGLVQPGGSLRLSCAASGSIFGSKRMGWFRQAPGKQRDVVATITYRGTTEYADSVKGRFTISRDNAKNTIYLQMNSLRPEDTAVYYCWRFTTDNYWGQGTLVTVSS
notes: as for B8
- binding result [2]: no binding (tested: 50 nM)

B20: KB_A27 (KB_A18 plus E58Y) (VHH)
VHH: EVQLVESGGGLVQPGGSLRLSCAASGSIFGSKRMGWFRQAPGKQRDVVATITYRGTTYYADSVKGRFTISRDNAKNTIYLQMNSLRPEDTAVYYCWMFTTDNYWGQGTLVTVSS
notes: as for B8
- binding result [8]: binds

B21: KB_A17 (humanized variant of KB_A01) (VHH)
VHH: EVQLVESGGGLVQPGGSLRLSCAASGSIFGSKRMGWFRQAPGKQRDVVATITYRGTTEYADSVKGRFTISRDNAKNTVYLQMNSLRPEDTAVYYCWMFTTDNYWGQGTQVTVSS
notes: as for B2
- binding result [5]: binds
